Laboratory results reported in patent publication US20030026781A1, “Compositions and methods for regulating endogenous inhibitor of ATP synthase, including treatment for diabetes” (MitoKor, priority 1999, published 2003).
“Also recorded” adds a separate entry of the source. Like-named read-outs stand apart in the source and are kept apart here.

B1: rat IF1: intact rat inhibitor protein of mitochondrial ATP synthase (SEQ ID NO:13), comparator for peptide 14-47 (protein, listed as Rattus norvegicus)
chain: MAGSALAVRARLGVWGMRVLQTRGFGSDSSESMDSGAGSIREAGGAFGKREKAEEDRYFREKTREQLAALKKHHEDEIDHHSKEIERLQKQIERHKKKIKYLKNSEH
B2: tat.mito.14-47: fusion protein SEQ ID NO:71: polyhistidine tag, tat, mitochondrial targeting sequence, IF1 fragment 14-47 (protein)
chain: MGGSHHHHHHGMASMTGGQQMGRDLYDDDDKDPSSGYGRKKRRQRRRGMAGSALAVRARLGVWGMRVLQTRGFSIREAGGAFGKREKAEEDRYFREKTREQLAALKK
modifications: Fusion protein

Columns and labels:
[1] = biological target: T1, mitochondrial ATP synthase (ETC Complex V) in rat liver submitochondrial particles (Rattus norvegicus, UniProt P10719+P15999); assay: Oligomycin-sensitive ATPase (ATP hydrolase) activity in rat liver submitochondrial particles (SMP); type: biochemical; settings: read-out: IC50 for oligomycin-sensitive ATPase inhibition
T1 construct: rat liver submitochondrial particles (SMP) prepared from male Sprague-Dawley rat livers; from tissue; host or cells: male Sprague-Dawley rat liver, submitochondrial particles (method of Walker et al. 1995)
Experimental: The IF1(42-58) polypeptide was also tested for its ability to inhibit the F0-F1-ATPase in rat ASMPs (alkaline submitochondrial particles) prepared as in the preceding Example. […] ATP hydrolase activity was expressed as the percent of detectable activity in the absence of added IF1-containing fusion protein, and the level of oligomycin-inhibitable activity was also determined (FIG. 8).
The effects of the IF1 peptides on ATPase activity were determined by assaying ATPase in rat liver submitochondrial particles (SMP) prepared from male Sprague-Dawley rat livers according to the method of Walker et al. (1995 Meth. Enzymol. 260:163-190). […] Louis, Mo., unless otherwise noted) for 10 min at room temperature. The mixtures were then added to assay buffer (50 mM Tris-HCl, 3.3 mM MgCl2, pH 8.0) in a 96-well plate and ATPase activity was initiated by the addition of 1 mM ATP, 1 mM phophoenolypyruvate, 3 U/ml pyruvate kinase, 10 U/ml lactate dehydrogenase and 0.3 mM NADH. Reactions were monitored by recording absorbance in “kinetic read” mode at 340 nm for 10 min at 30° C. in a termperature-controlled Spectromax Plus-384™ 96-well plate reader (Molecular Devices, Inc., Sunnyvale, Calif.) according to the manufacturer's instructions. In this mode, the plate reader recorded an absorbance value for each well at approximately nine-second intervals. A parallel set of reactions was set up identically except for the addition of 10 μg/ml oligomycin, to correct for the component of ATPase activity that was oligomycin-inhibitable.
Dose-response curves were generated for IF1 peptides 14-33 (SEQ ID NO:30), 14-47 (SEQ ID NO:29), 14-46 (SEQ ID NO:67), 14-45 (SEQ ID NO:66), 14-44 (SEQ ID NO:65), 14-43 (SEQ ID NO:64) and 14-42 (SEQ ID NO:63) by setting up SMP ATPase reactions as described above with serial dilutions of the IF1 peptides over a range of several orders of magnitude between 10^−4 and 10^2 μM (FIG. 12). Data were plotted and IC50 values were calculated using Prism software (GraphPad, San Diego, Calif.) according to the nianufacturer's instructions. […]

INS-1 cells = assay: Glucose-stimulated insulin secretion (GSIS) in INS-1 cells with tat.mito.14-47; type: cell-based, rat; settings: 8 mM glucose, varying amounts of fusion protein, FIG. 13
Experimental: The nucleic acid encoding a tat.mito.14-47 fusion protein was constructed essentially as described in Example 2. The tat.mito.14-47 fusion protein (SEQ ID NO:71) enhanced GSIS in INS-1 cells when used in the assay conditions described as follows. Briefly, INS-1 cells were seeded into 12-well plates containing RPMI media supplemented as described at 0.7×10^6 cells/well and cultured at 37° C., 5% CO2 for 2 days. Cells were preincubated in the presence or absence of varying amounts of tat.mito.14-47 or vehicle control in glucose-free RPMI media supplemented with 1% FCS for 1 hr at 37° C. in a humidified 5% CO2/95% air atmosphere. Cells were rinsed with glucose-free modified KRH buffer (134 mM NaCl, 3.6 mM KCl, 0.5 mM NaH2PO4, 0.5 mM MgCl2, 1.5 mM CaCl2, 10 mM HEPES, 5 mM NaHCO3, 0.1% BSA), incubated in the same buffer for 30 min at 37° C. in a humidified 5% CO2/95% air atmosphere, again in the presence or absence of varying amounts of tat.mito.14-47 or vehicle control. Then fresh modified KRH buffer containing 0.25 mM isobutylmethyl xanthine and 8 mM glucose was added, the cells were stimulated for 30 min at 37° C., 5% CO2 and then culture supernatants were collected. Insulin concentrations in the supernatants were measured by immunoasssay (Alpco ELISA Kit) and normalized to protein (Pierce/BCA Kit) according to the manufacturers' instructions.

Molecule	IC50 ([1]; pH 6.5) [nM]	IC50 ([1]; pH 7.25) [nM]	IC50 ([1]; pH 8) [nM]	effect on GSIS (INS-1 cells)
B1	190 ± 24	420 ± 56	> 800	
B2				enhanced GSIS; also recorded: further induced glucose stimulated insulin secretion in a dose dependent manner
